Results from patent publication EP4755372A1, “POLYMERIC MICELLE […] POLYMER CHAIN OF SELF-A[…]” (INSTITUTE OF SCIENCE TOKYO, priority 2023, dated 2025).

What was measured:
[1] = Pharmacokinetics test in CT26 tumor-bearing mice, Gd concentration by ICP-MS; format: in vivo; settings: caudal vein, Gd conc. 5 mg/kg; for blood retentivity and blood clearance: CT26 tumor-bearing mice; for tumor accumulation (Gd concentration): 24-48 hours after administration for SMDC-Gd4; for accumulation in different organs: liver, spleen, kidneys, brain, muscle, pancreas
Method: A tumor-bearing model was prepared by subcutaneously transplanting CT26 mouse colorectal cancer cells into mice (Balb/c, 6-week-old, female, SLC), and the model was used for pharmacokinetics testing. A cell suspension that had been subcultured (5% CO2, 37°C) using DMEM medium (containing 10% FBS and 1% penicillin streptomycin) was subcutaneously injected into the mouse dorsal region (1 × 10^6 cells/mouse, DMEM). At 10 days after administration, the tumor size was randomized and each sample was administered to the mouse through the caudal vein (Gd conc. 5 mg/kg, n = 6). After administration, blood was collected and the organs (tumors, liver, spleen, kidneys, pancreases, skin, muscles and brains) were dissected after specified time periods (1, 4, 8, 24 and 72 hours). After sampling, the plasma was collected by centrifugal separation of the blood to prepare a sample. The collected organs were pretreated (heated at 70% nitric acid, heating at 90°C for ≥1 hour, followed by dilution with ultrapure water), and the Gd concentration was measured using ICP-MS.
• Apparatus: Agilent 7700x ICP-MS/Agilent • Pretreatment apparatus: EYELA MG-2300/Tokyo Rikakikai Co., Ltd. • Standard solution: Gadolinium standard solution (Gd1000) for ICP analysis/FujiFilm-Wako • Results: Figs. 18 to 25

[2] = test system: CT26 mouse colorectal cancer cells; assay: MRI R1 mapping in CT26 tumor-bearing mice; format: in vivo; settings: for tumor/muscle ratio (T/M ratio) of the relaxation rate: Gd conc. 0.1 mmol/kg
Method: CT26 mouse colorectal cancer cells were subcutaneously grafted into mice (BALB/c nu/nu mice, 5-week-old, female, SLC) to create a tumor-bearing model which was used for MRI. A CT26 cell suspension that had been subcultured (5% CO2, 37°C) using DMEM medium (containing 10% FBS and 1% penicillin streptomycin) was subcutaneously injected into the mouse dorsal region (1 × 10^6 cells/mouse, Hank's balanced salt solution). At 1 week after administration, the tumor size was randomized, and then each sample was administered to the mouse through the caudal vein (Gd conc. 0.1, 0.05, 0.03 and 0.01 mmol/kg). MRI imaging (R1 mapping, T1-weighted image) was carried out under isoflurane anesthesia.
• Apparatus: Horizontal 1.0 T Bruker ICON MRI system/Bruker • Pulse sequence: Rapid acquisition with relaxation enhancement (RARE)-based inversion recovery sequence • Measuring conditions: Echo time (TE) = 10 ms; [formula] Repetition time (TR) = 10,000 ms; [formula] [formula] RARE Factor = 4; [formula] Field of view (FOV) = 28.0 × 16.0 mm^2; [formula] Slice thickness = 2.0 mm; [formula] Pixel count = 70 × 40; [formula] Resolving power (in-planeresolution) = 0.4 × 0.4 mm^2 [formula] Number of excitations = 1; [formula] • Fat suppression mode: OFF; • FOV saturation: ON • Measuring points: Before administration and 20, 40, 60 minutes and 24 hours after administration • Results: Figs. 38 to 42

[3] = test system: CT26 mouse colorectal cancer cells; assay: Gd-NCT experiment (neutron irradiation of CT26 tumor-bearing mice); format: in vivo; settings: 3 administrations, Gd conc. 0.1 mmol/kg, neutron irradiation 10 minutes
Method: A tumor-bearing model prepared by subcutaneously grafting CT26 mouse colorectal cancer cells into mice (Balb/c, 6-week-old, female, SLC) was used in an experiment for Gd-NCT. A CT26 cell suspension was injected into the mouse right femoral region (2 × 10^5 cells/mouse, DMEM). After approximately 2 weeks, each sample was administered 3 times through the caudal vein of the mouse (after 0, 24 and 48 hours, Gd conc. 0.1 mmol/kg, n = 5). A PBS-administered group was used as a comparative control. At 72 hours after the first administration, the holder in which the mouse had been placed was set on a 5 mm-thick thermoplastic sheet containing 40 wt% ^6LiF (96% ^6Li) for shielding of thermal neutrons and irradiated with neutron rays for 10 minutes only at the tumor site of the right femoral region (5 MW, Kyoto University Research Reactor, fluence: 2.87 × 10^12 to 3.29 × 10^12 thermal neutron/cm^2, 5.10 × 10^11 to 5.86 × 10^11 epithermal neutron/cm^2). The antitumor effect was confirmed by time-dependent change in tumor volume, and toxicity was confirmed by change in mouse body weight.

[4] = Evaluation of SMDC formation: DA from SEC-MALS in PBS and chloroform; format: physicochemical; settings: DA = MwPBS/MwCHCl3; 5 mg/mL, 40°C
Method: The foldability in water of BZAm-PEGAn-CEAk(DOTA)j obtained by the procedure described above was evaluated by comparing the absolute weight-average molecular weight Mw calculated from size exclusion chromatography in aqueous solution (PBS) and in an organic solvent (chloroform or DMF) and a system utilizing a multi-angle light scattering detector (SEC-MALS). Data obtained from SEC-MALS were analyzed using a Zimm plot, with dn/dc being the value calculated by measuring the refractive index of 4 different samples with different concentrations in each solvent (4, 3, 2 and 1 mg/mL). DA was calculated by the following formula. DA = MwPBS/MwCHCl3
• Apparatus: JASCO Extrema HPLC system (LC-Net II/ADC, Co-4060, AS-4050, PU-4180/JASCO Corp. • Detector: UV-4070/JASCO Corp., RI-4030/JASCO Corp., DAWN 8 MALS detector/Wyatt Technology Corporation • Column: OHpak SB-804HQ column/Showa Denko K.K. • (column size: 8 mm × 300 mm, pore size: 20 nm, particle size: 10 µm, exclusion limit: 1 × 10^6 g/mol) • OHpak SB-806 MHQ column/Showa Denko K.K. • (column size: 8 mm × 300 mm, pore size: 1.5 µm, particle size: 13 µm, exclusion limit: 2 × 10^7 g/mol) • OHpak SB-G 6B Guard column/Showa Denko K.K. • Mobile phase: 137 mM NaCl, 2.7 mM KCl, 11.9 mM phosphate buffer (PBS), pH 7.4 Temperature: 40°C • Flow rate: 1 mL/min • Sample concentration : 5 mg/mL • Results: Table 21
• Apparatus: TOSOH HLC-8220 GPC system/Tosoh Corp. • Detector: DAWN HELEOS II MALS detector/Wyatt • Column: LF-804 column/Showa Denko K.K. • (column size: 8 mm × 300 mm, pore size: 300 nm, particle size: 6 µm, exclusion limit: 2 × 10^6 g/mol) • LF-G guard column/Showa Denko K.K. • Mobile phase: chloroform • Temperature: 40°C • Flow rate: 1 mL/min • Sample concentration : 5 mg/mL • Results: Table 21

[5] = SAXS measurement (Guinier plot particle size, Kratky plot); format: physicochemical; settings: SAXS in aqueous solution, 10 mg/ml
Method: (§1) For the previously obtained BZAm-PEGAn-CEAk(DOTA)j and PEGAn-CEAk(DOTA)j, the particle size was confirmed by Guinier plot in small angle x-ray scattering (SAXS), and SMDC formation was confirmed by Kratky plot. The particle size was also measured by transmission electron microscopy (TEM) and dynamic light scattering. The surface potential was also measured.
• Apparatus: nano-viewer SAXS system/Rigaku Corp. • Solvent: Ultrapure water or DMF • Sample concentration : 10 mg/ml • Measuring temperature: room temperature • Results: Fig. 12 and Fig. 13

[6] = Zeta potential (surface potential) measurement; format: physicochemical; settings: for surface charge (zeta potentials): ultrapure water
Method: as §1
• Apparatus: Malvern Zetasizer Nano ZSP/Malvem Panalytical • Solvent: Ultrapure water • Sample concentration : 10 mg/ml • Measuring temperature: room temperature • Results: Fig. 16 and Fig. 17

[7] = Relaxivity measurement (r1, r2), 0.47T NMR; format: physicochemical; settings: compared with Gd-DOTA, 37°C
Method: Different polymer samples (Gd conc. 1 mM, 0.5 mM, 0.25 mM and 0.125 mM) were prepared, and the longitudinal relaxation time T1 and transverse relaxation time T2 were measured for each concentration. Using the obtained results, a plot of Gd concentration with respect to obtained relaxation time was drawn, and the longitudinal relaxivity r1 and transverse relaxivity r2 were derived from the slope of the fitted curve, based on the following formula. Here, (1/Ti)obs represents the measured relaxation time, and (1/Ti)d represents the relaxation time of the solvent. (1/Ti)obs = (1/Ti)d + ri [Gd]. i = 1, 2 [formula]
• Apparatus: Bruker minispec 0.47T NMR/Bruker • Solvent: Ultrapure water or BSA (10 mg/mL)-dissolved ultrapure water • Measuring conditions: Temperature: 37°C, receiver gain = 80-82, recycle delay = 2. • Results: Table 22

[8] = TEM particle size measurement; format: physicochemical; settings: by folding; method not given
Method: as §1
• Apparatus: JEM-2100F TEM system/JEOL Corp. • Solvent: Ultrapure water • Pretreatment: Stained on formvar/carbon supported-copper grids • Measuring temperature: room temperature • Results: Fig. 14 and Fig. 15

[9] = Pharmacokinetics test for Gd-NCT (single or 3 administrations), Gd by ICP-MS; format: in vivo, mice
Method: A tumor-bearing model was prepared by subcutaneous grafting of CT26 mouse colorectal cancer cells into mice (Balb/c, 6-week-old, female, SLC) by the same procedure as for the SMDC-Gd pharmacokinetics test, and a pharmacokinetics test was conducted as an experiment for Gd-NCT. In this case, however, each sample was administered once or 3 times through the caudal vein of the mouse (0, 24 and 48 hours afterwards, Gd conc. 0.1 mmol/kg, n = 5), with blood collection and organ dissection and collection (tumors, liver and kidneys) 24 hours after the final administration. Each organ was pretreated by the same procedure as described above, and the Gd concentration was also measured in the same manner using ICP-MS. • Apparatus: Agilent 7700x ICP-MS/Agilent • Pretreatment apparatus: EYELA MG-2300/Tokyo Rikakikai Co., Ltd. • Standard solution: Gadolinium standard solution (Gd1000) for ICP analysis/FujiFilm-Wako • Results: Fig. 46 and Fig. 47

[10] = 3 doses given every 24 hours, after the final 24 hours

| Compound | blood retentivity and blood clearance [1] | tumor accumulation (Gd concentration) [1] | tumor/muscle ratio (T/M ratio) of the relaxation rate ([2]; 1 hour after administration) | antitumor effect by Gd-NCT (tumor volume) [3] | accumulation in different organs [1] | DA [4] | Kratky plot (particle formation) [5] | surface charge (zeta potentials) [6] | longitudinal relaxivity (r1) [7] | also measured |
| --- | --- | --- | --- | --- | --- | --- | --- | --- | --- | --- |
| O=C([O-])CN1CCN(CC(=O)[O-])CCN(CC(=O)O)CCN(CC(=O)[O-])CC1.[Gd+3] [Gd-DOTA, gadoteric acid] | rapidly excreted from the blood | low | 0.77 | failed to exhibit sufficient antitumor activity |  |  |  |  |  |  |
| BZA100-PEGA70-CEA30(DOTA)17 [TP6] | more rapid |  |  |  | accumulated more abundantly in the liver, spleen and kidneys | 0.53 | form particles in aqueous solution | negative | higher | zeta potential [6]: -37 mV |
| BZA100-PEGA80-CEA20(DOTA)9 [TP5] |  |  |  |  |  | 0.88 | form particles in aqueous solution |  | higher |  |
| BZA100-PEGA90-CEA10(DOTA)4 [TP4] | equivalent | at least twice that of SMDC-Gd17 and PEGA-Gd4 | 1.17 | suppressed tumor growth | equivalent to typical nanomedicine | 0.91 | form particles in aqueous solution | negative | higher | contrast effect in tumor tissue ([2]; longitudinal relaxation rate of tumors): high contrast effect; tumor/muscle ratio (T/M ratio) of the relaxation rate ([2]; within 24 hours after administration): 1.36; change in body weight after Gd-NCT [3]: without body weight loss; diameter [8]: about 6 nm; intratumoral Gd concentration [9, 10]: 91.2 ppm; intratumoral concentration in terms of ^157Gd groups [9, 10]: 14.3 ppm; intratumoral concentration in terms of ^157Gd groups ([9]; single dose, 24 hours after injection): 6.4 ppm; intratumoral Gd concentration ([9]; single dose, 24 hours after injection, Gd conc. 0.1 mmol/kg): 41.2 ppm |
| PEGA104-CEA30(DOTA)12 [PEGA-Gd12] |  |  |  |  |  |  |  |  | higher |  |
| PEGA124-CEA10(DOTA)4 [PEGA-Gd4] | equivalent |  |  |  |  |  | no peak could be confirmed | negative | higher | R1 value ([2]; during the 24 hours, compared with SMDC-Gd4): consistently lower than SMDC-Gd4 |
